Laboratory results reported in publication PMC3772987.

B1: FPospAB (dsDNA)
DNA 1: TAATCTTATAATATAATTATACTT
DNA 2: AAGTATAATTATATTATAAGATTA
B2: FPospD (dsDNA)
DNA 1: ATAATTGATATTAAAATATAATTGAT
DNA 2: ATCAATTATATTTTAATATCAATTAT

Tests used:
BosR tag-free = BosR tag-free (Borrelia burgdorferi B31, UniProt O51592 1-176, M1R); test: fluorescence anisotropy
His6-BosR = His6-BosR (Borrelia burgdorferi B31, UniProt O51592 2-176); test: fluorescence anisotropy

Binder	Kd (BosR tag-free) [nM]	Kd (His6-BosR) [nM]
B1	307	222
B2	332	262
